Laboratory results published in US20020037853A1.
Each block holds one substance with its values, some of them ahead of it. No end group written: not given here.

Assays:
[1] = target: cell surface receptors for collagen on human dermal fibroblasts; assay: attachment of fibroblasts to collagen-coated dishes, peptide in the medium at 35 × 10^-6 M; competitor collagen
[2] = target: cell surface receptors for collagen on human dermal fibroblasts; assay: cell-binding activity relative to the inventive peptide of Examples 1 and 2
[3] = target: cell surface receptors for collagen on human dermal fibroblasts; assay: cell-binding activity relative to the SEQ ID NO:1 peptide
[4] = target: cell surface receptors for collagen on human dermal fibroblasts; assay: attachment of fibroblasts to collagen-coated dishes, peptide in the medium at 36 × 10^-6 M; competitor collagen
[5] = target: cell surface receptors for collagen on human dermal fibroblasts; assay: about 100,000 human fetal dermal fibroblasts on coated glass coverslips, 15 min, attached cells counted; uncoated control 7.01
[6] = target: cell surface receptors for collagen on human dermal fibroblasts; assay: attachment of fibroblasts to collagen-coated dishes, peptide in the medium at 7.2 × 10^-6 M; competitor collagen
[7] = target: cell surface receptors for collagen on human dermal fibroblasts; assay: fibroblast attachment to coated coverslips, 15 min; reference collagen
[8] = target: cell surface receptors for collagen on human dermal fibroblasts; assay: fibroblast attachment to coated coverslips, 15 min
[9] = target: cell surface receptors for collagen on human dermal fibroblasts; assay: various other similar cell attachment studies on glass or polystyrene
[10] = target: cell surface receptors for collagen on human dermal fibroblasts; assay: attachment of fibroblasts to collagen-coated dishes, polyproline in the medium at 1.7 × 10^-6 M; competitor collagen
[11] = target: cell surface receptors for collagen on human dermal fibroblasts; assay: biological (cell-binding) activity relative to P-15; assay not described there

Substance: Dynorphin 1-13 (from UniProt P01213 207-219) (peptide)
% Inhibition of Cell Attachment [1]: 19%
% of Maximal Cell Attachment [1]: 81%

Substance: FGIAGF (SEQ ID NO:5)
Relative Cell-Binding Activity (% relative to the SEQ ID NO:1 peptide) [2]: 87

Substance: Gln-Gly-Ile-Ala-Gly (SEQ ID NO:8) (peptide)
cell-binding activity relative to the SEQ ID NO:1 peptide [3]: 42%

Substance: Gly-Ile-Ala-Gly-Gln (SEQ ID NO:6) (peptide)
Relative Cell-Binding Activity (% relative to the SEQ ID NO:1 peptide) [2]: 70

Substance: Polyproline (peptide)
% Inhibition of Cell Attachment [10]: 10%
% of Maximal Cell Attachment [10]: 90%

Substance: QGIAGQ (SEQ ID NO:3)
Relative Cell-Binding Activity (% relative to the SEQ ID NO:1 peptide) [2]: 120

Substance: QGIAGQR (SEQ ID NO:4)
Relative Cell-Binding Activity (% relative to the SEQ ID NO:1 peptide) [2]: 60

Substance: Rat tail tendon collagen (rat tail type I collagen) (from UniProt P02454 152-1207; P02466 86-1125)
Concentration of Cells (relative binding of cells after 15 minutes) [5]: 8.59

Substance: human preangiotensinogen 1-14 (from UniProt P01019 25-38) (peptide)
% Inhibition of Cell Attachment [1]: 12%
% of Maximal Cell Attachment [1]: 88%

Second part, the substance after the results:

Relative Cell-Binding Activity (% relative to the SEQ ID NO:1 peptide) [2]: 100
Substance: GPQGIAGQR (SEQ ID NO:2)

% Inhibition of Cell Attachment [4]: 88%
% of Maximal Cell Attachment [4]: 12%
Concentration of Cells (relative binding of cells after 15 minutes) [5]: 11.1
% Inhibition of Cell Attachment [6]: 85%
% of Maximal Cell Attachment [6]: 15%
increase in cell binding over collagen-coated dishes [7]: 40%
increase in cell binding over the control (no collagen or peptide) [8]: 60%
potency in binding cells relative to collagen (fold over collagen) [9]: 2
Substance: Inventive peptide Gly-Thr-Pro-Gly-Pro-Gln-Gly-Ile-Ala-Gly-Gln-Arg-Gly-Val-Val (SEQ ID NO:1)

Relative Cell-Binding Activity (% relative to the SEQ ID NO:1 peptide) [2]: 70
Substance: QGAIAQ (SEQ ID NO:7)

biological activity relative to P-15 [11]: 60%
Substance: dipeptide -Ile-Ala-
